Measurements published in publication PMC7877763.
pKd: −log10 of the molar value.

Tests used:
[1] = biological target: GPR-foldon (foldon stabilized collagen model peptide containing a (GPP)5GPR(GPP)6 collagen sequence); experiment: BLI; biotinylated GPR-foldon immobilised on streptavidin biosensors, blocked with 10 uM biocytin; HSP47 in solution; 50 mM Tris, 150 mM NaCl, pH 7.5 (TBS); kon and koff fitted with a 1:1 Langmuir model, KD = koff/kon
[2] = biological target: GPR-foldon (foldon stabilized collagen model peptide containing a (GPP)5GPR(GPP)6 collagen sequence); experiment: ELISA; ELISA-like binding assay; type I collagen from rat tail coated at 10 ug/mL on MaxiSorp plates (coating of GPR-foldon not described); His-tagged HSP47 at 1.2 to 5,000 nM in solution; detected with HRP-coupled anti-His antibody; four-parameter logistic fit

Row | pKd [1] | pKd [2] | Substance
1 | 4.94 | 5.82 | recombinant canine HSP47-R222S (from UniProt C7C419 36-418) (natural protein)
2 | 6.39 | 7.25 | recombinant wild-type canine HSP47 (from UniProt C7C419 36-418) (natural protein)
